Test results taken from publication PMC8153938 (ACS Omega, 2021).

B1: PKR R107A (enzyme, human, UniProt P19525 1-551, looked up)
chain: MAGDLSAGFFMEELNTYRQKQGVVLKYQELPNSGPPHDRRFTFQVIIDGREFPEGEGRSKKEAKNAAAKLAVEILNKEKKAVSPLLLTTTNSSEGLSMGNYIGLINAIAQKKRLTVNYEQCASGVHGPEGFHYKCKMGQKEYSIGTGSTKQEAKQLAAKLAYLQILSEETSVKSDYLSSGSFATTCESQSNSLVTSTLASESSSEGDFSADTSEINSNSDSLNSSSLLMNGLRNNQRKAKRSLAPRFDLPDMKETKYTVDKRFGMDFKEIELIGSGGFGQVFKAKHRIDGKTYVIKRVKYNNEKAEREVKALAKLDHVNIVHYNGCWDGFDYDPETSDDSLESSDYDPENSKNSSRSKTKCLFIQMEFCDKGTLEQWIEKRRGEKLDKVLALELFEQITKGVDYIHSKKLIHRDLKPSNIFLVDTKQVKIGDFGLVTSLKNDGKRTRSKGTLRYMSPEQISSQDYGKEVDLYALGLILAELLHVCDTAFETSKFFTDLRDGIISDIFDKKEKTLLQKLLSKKPEDRPNTSEILRTLTVWKKSPEKNERHTC

Legend:
[1] = biological target: Unphosphorylated human Protein kinase R (PKR), wild type (human) (UniProt P19525); assay: AUC
AUC = biological target: the molecule itself; assay: AUC

Molecule | Kd [1] [µM] | Kd (AUC) [µM]
Unphosphorylated human Protein kinase R (PKR), wild type (from UniProt P19525 1-551) (enzyme) | 702 | –
B1 | – | 704
